US20160152686A1 (Bristol-Myers Squibb, published 2016)

Experiments:
[1] = biological target: recombinant human PCSK9 expressed in baculovirus (human, UniProt Q8NBP7 31-692, limits assumed); experiment: PCSK9:EGFA FRET competition assay (inhibition of PCSK9 binding to biotinylated EGFA peptide)
From the text: A fluorescence resonance energy transfer (FRET)-based assay was developed to determine the binding affinity and potency of PCSK9-binding adnectins. It was adapted from the general method described previously by Maio et al. (Miao, B. et al., Meth. Enzymol., 357:180-188 (2002); see also WO 2011/130354). The PCSK9:EGFA FRET assay measures the inhibition of PCSK9 binding to the LDLR epidermal growth factor precursor homology domain (EGFA domain), using recombinant human PCSK9 expressed in baculovirus and a synthetic 40-mer EGFA peptide (biotinylated). […] This assay uses a PCSK9 C-terminal domain binding mAb (mAb 4H5) labeled with Eu-chelate to provide FRET interaction with biotinylated EGFA through the streptavidin/allophycocyanin fluorophore complex. […] Thus, the biological activity of PCSK9 adnectin linked to ABD is at least as good as that of the unmodified PCSK9 adnectin.

human serum albumin [2] = biological target: T1, human serum albumin (human, UniProt P02768 25-609); experiment: SPR, affinity to HSA
T1 construct: also called HSA; HuSA

sol VEGFR2 = experiment: SPR, VEGFR2 immobilized on chip, ABD-(GS)3-C7FL-His6 (0.02 nM-300 nM) as analyte
VEGFR2-Fc = experiment: as above
human serum albumin [3] = biological target: T1, human serum albumin; experiment: SPR, serum albumin immobilized on chip, ABD-(GS)3-C7FL-His6 (0.02 nM-300 nM) as analyte
Method: (§1) The binding affinity of ABD-(GS)3-C7FL-His6 to human, mouse and Cynomolgus monkey serum albumin was also measured. In an SPR experiment, the serum albumins were immobilized on chip, and ABD-(GS)3-C7FL-His6 (0.02 nM-300 nM) was flowed as analyte.

mouse serum albumin = biological target: T2, mouse serum albumin (mouse, UniProt P07724 25-608); experiment: as above
T2 construct: also called MuSA
Method: as §1

[4] = biological target: Cynomolgus monkey serum albumin (given as RhSA in Table 3) (Cynomolgus monkey; RhSA (table)); experiment: as above
Method: as §1

EC50 [1] [nM] | Kd (human serum albumin [2]) [nM] | Kd (sol VEGFR2) [nM] | koff (sol VEGFR2) [s⁻¹] | kon (sol VEGFR2) [M⁻¹ s⁻¹] | Kd (VEGFR2-Fc) [nM] | koff (VEGFR2-Fc) [s⁻¹] | kon (VEGFR2-Fc) [M⁻¹ s⁻¹] | Kd (human serum albumin [3]) [nM] | koff (human serum albumin [3]) [s⁻¹] | kon (human serum albumin [3]) [M⁻¹ s⁻¹] | Kd (mouse serum albumin) [nM] | koff (mouse serum albumin) [s⁻¹] | kon (mouse serum albumin) [M⁻¹ s⁻¹] | Kd [4] [nM] | koff [4] [s⁻¹] | kon [4] [M⁻¹ s⁻¹] | Binder
2.6 | – | – | – | – | – | – | – | – | – | – | – | – | – | – | – | – | unmodified (i.e., without ABD) PCSK9 adnectin (designed binder, also called Enhancer method: None) VSDVPRDLEVVAATPTSLLISWVPPSDDYGYYRITYGETGGNSPVQEFTVPIGKGTATISGLKPGVDYTITVYAVEFPWPHAGYYHRPISINYRT
0.3 | 12.4 | – | – | – | – | – | – | – | – | – | – | – | – | – | – | – | PCSK9 adnectin-ABD fusion protein (PCSK9 adnectin-(GS)3-ABD-His6) (designed binder, Expressed in E. coli; also called PCSK9 Adn-(GS)3-ABD; 2013_E01-(GS)3-ABD (anti-PCSK9)) MGVSDVPRDLEVVAATPTSLLISWVPPSDDYGYYRITYGETGGNSPVQEFTVPIGKGTATISGLKPGVDYTITVYAVEFPWPHAGYYHRPISINYRTGSGSGSQHDEAVDANSLAEAKVLANRELDKYGVSDYYKNLINNAKTVEGVKALIDEILAALPHHHHHH
– | 1.15 | 3.18 | 0.000261 | 82000 | 3.31 | 0.000163 | 49300 | 1.15 | 0.000505 | 439000 | 1 | 0.00033 | 331000 | 1.82 | 0.000826 | 455000 | ABD-(GS)3-C7FL-His6 (anti-VEGFR2 adnectin linked to ABD at its N-terminus) (designed binder, also called ABD-C7FL; ATI-0001087) MGQHDEAVDANSLAEAKVLANRELDKYGVSDYYKNLINNAKTVEGVKALIDEILAALPGSGSGSVSDVPRDLEVVAATPTSLLISWRHPHFPTRYYRITYGETGGNSPVQEFTVPLQPPTATISGLKPGVDYTITVYAVTDGRNGRLLSIPISINYRTGSGSHHHHHH
